The target in assay [1] is T1, xPSM (Homo sapiens, UniProt Q04609).
T1 construct: Purified human xPSM (the extracellular portion of human PSMA); S-tag (cleaved yes); made in house; host or cells: Sf-9 insect cells infected with recombinant baculovirus; released from S-protein agarose by enterokinase
In words: NAAG hydrolysis (NAALADase) assay with purified xPSM. Type of assay: biochemical. The settings on record: 1, 10 and 100 micromolar; 30 nM NAAG substrate, 37° C., 10 minutes. The source says: In another embodiment, the peptide compounds of the invention specifically enhance the enzymatic activity of PSMA. In another embodiment, peptide compounds of the invention may inhibit PSMA activity. Accordingly, the invention provides a method for assaying peptide compounds for the ability to modulate the activity of PSMA. This method is described in detail in Robinson, M. B. et al. (1987) J. Biol. Chem. 262:14498-506, incorporated herein by reference, as well as in Example 6 herein. Purified human xPSM (the extracellular portion of human PSMA) is incubated with a radiolabeled substrate, N-acetyl-L-aspartyl-L-[3,4-^3H]glutamate, plus the peptide compound being tested. Hydrolyzed substrate is then separated from intact substrate (e.g., by anion exchange chromatography) and quantitated to determine whether the test peptide compound was able to modulate PSMA activity.
N-acetyl-aspartyl-glutamate (NAAG) hydrolysis was performed essentially as previously described (Robinson, M. B. et al. (1987) J. Biol. Chem. 262:14498-506, incorporated herein by reference). In short, 65 ng purified xPSM was resuspended in NAALADase Buffer (50 mM Tris, pH 7.4, 0.5% Triton X-100) and incubated in the presence of peptides or inhibitors (1, 10, and 100 micromolar), along with the radiolabeled substrate N-acetyl-L-aspartyl-L-[3,4-^3H]glutamate (NEN Life Science Products, Boston, Mass.) at 30 nM. Reactions were run at 37° C. for 10 minutes. The reaction was then stopped by the addition of an equal volume of ice-cold 100 mM sodium phosphate, 2 mM EDTA. Products were separated from intact substrate using AG 1-X8 Formate resin (BioRad Laboratories, Hercules, Calif.) anion exchange chromatography. The reaction product, tritiated-glutamate, was eluted with 1M sodium formate and quantitated by scintillation counting. Intact NAAG remained in the column resin. Experiments were completed in triplicate and have been repeated. The data represents six data points from two experiments. Experiments were designed to allow 20% or less of the total substrate to be cleaved.

Assay [2] deals with T1, xPSM. In words: Final phage display round on xPSM bound to microtiter plates. Type of assay: binding. The text has this: In addition to phage library partitioning by cell binding, a final round of binding was completed on xPSM (Tag-xPSM digested with enterokinase) bound to plastic microtiter plates. This final round was used to ensure that those peptides identified in the LNCaP screen were targeting PSMA and not another unknown surface protein.
Multiple individual phage from rounds three of LNCaP binding and the final round of xPSM binding were isolated, amplified, and sequenced. […] Two sequences are highly represented and are found in both cell and purified protein backgrounds.

Assay [3] concerns the target T2, Tag-xPSM (Homo sapiens, UniProt Q04609).
T2 construct: made in house; host or cells: Sf-9 insect cells infected with recombinant baculovirus; protein harvested from the media
In words: Stringent Tag-xPSM phage display, round 4 acid elution pool. The settings on record: pH 2.2 pool. Type of assay: binding. As for the experimental part: As described above in Example 1, Tag-xPSM was used as a target for the in vitro selection of a commercially available cysteine-constrained heptapeptide phage library. For the initial round, 14 micrograms of S-protein-agarose immobilized Tag-xPSM was incubated with 2×10^11 PFU for 30 minutes at room temperature while rotating. Weakly bound phage were then washed off with three 5 minute rotating washes. One phage pool, referred to herein as the “pH 2.2 pool”, was eluted for ten minutes in pH 2.2 glycine buffer followed by neutralization in Tris buffer. Those phage still bound to Tag-xPSM were then eluted for one hour in 30 mM EDTA-Tris buffer. This pool is referred to herein as the “EDTA pool”. These two pools where then carried separately for the next three rounds. Stringency was increased in each round by changing Tag-xPSM substrate background, decreasing binding time, or increasing washing time (Table 3).
Twelve individual phage from each elution condition for rounds two, three, and four of Tag-xPSM phage display were isolated, amplified, and sequenced. All clones sequenced from rounds 2 and 3 were unique (Tables 4 and 5).

Assay [4] addresses T2, Tag-xPSM. In words: Tag-xPSM phage display selection (agarose/cellulose), sequencing of selected phage. The assay is classed as binding. The protocol:
100 μl of S-protein agarose (2× in RPMI 1640+1% Fetal Bovine Serum (FBS) and 100 μl of CBind Resin (10 mg/ml in RPMI 1640+1% FBS) without fusion protein were used to negatively select the original phage display library. 2×10^11 plaque forming units (PFU) of 1.29×10^9 different sequence phage were incubated with each aliquot of resin for 1 hr at 37° C., while rotating. The S-tag agarose was pelleted and supernatant saved as the agarose counter-selected pool. The cellulose resin was transferred onto 200 μl of 9:1 dibutyl phthalate:cyclohexane and the resin pelleted through the organic phase. The aqueous supernatant was saved as the cellulose counter-selected pool. Each counter selected pool was then added to tag-xPSM agarose or cellulose resin and incubated for 1 hr at 37° C., while rotating. The tag-xPSM agarose was pelleted and washed three times in RPMI 1640+1% FBS. The agarose pellet was then saved for phage isolation. The Tag-xPSM cellulose was transferred onto 200 μl of 9:1 dibutyl phthalate:cyclohexane and the resin pelleted through the organic phase. The tube was then snap frozen in liquid nitrogen to isolate the resin pellet. Over 75% of Tag-xPSM remained bound to the cellulose resin through these conditions. The resulting phage-bound tag-xPSM agarose and tag-xPSM cellulose were then resuspended in 200 μl of log phage ER2738 cells and phage allowed to infect 1 hour at room temperature. A small aliquot was taken at this time to quantitate the number of phage bound per round of selection. The remaining PSMA bound phage was then amplified, tittered, and applied to the next round of phage display. There was only one counter-selection round, followed by a total of five positive selection rounds, applying between 10^10 to 10^11 PFU per round. The final round of selection included cross-selections, where selected phage pools from one PSMA background where applied to the other. Individual phage were isolated and sequenced from rounds three through five.
Individual phage plaques were amplified for 5 hours in ER2738 cells at 37° C. Amplified supernatant was incubated 1:1 with PEG/NaCl buffer (20% PEG 8000, 2.5 M NaCl) for 10 minutes at room temperature. Phage were microfuged 10 minutes at 20,000 g, 4° C. The phage pellet was suspended in 100 μl Iodide buffer (10 mM Tris-HCl, pH 8.0, 1 mM EDTA, 4M NaI). Single stranded DNA (ssDNA) was precipitated with 250 μl of 100% ethanol, pelleted, and washed in 70% ethanol. Each ssDNA pellet was suspended in 30 μl 10 mM Tris, pH 7.4. Each phage was sequenced using the Amersham DYE ET mix, by incubating 6 μl ssDNA, 1 μl of 5 μM-96 pill Sequencing Primer ([…]; SEQ ID NO:108), and 8 μl of DYE ET mix in a 96 well PCR plate and amplified by 30 cycles of 95° C. for 20 seconds, 50° C. for 15 seconds, and 60° C. for 1 minute. Sequencing reaction products were spun through G50-fine Sephadex column plates, prepared on Millipore-multiscreen plates. Products were sequenced and analyzed on the MegaBACE capillary sequencer. All sequences, minus the flanking cysteines, were aligned using the Baylor College of Medicine Clustal W1.8 Global Progressive Alignment (available online) with data presented by Boxshade 3.21 software (available online through the Swiss Institute for Bioinformatics).
2×10^11 plaque-forming units (PFU) of the library was incubated with each aliquot of resin for one hour at 37° C., while rotating. The S-tag agarose was pelleted and the supernatant saved as the agarose counter-selected pool. The cellulose resin was transferred onto a 9:1 ratio of dibutyl phthalate:cyclohexane and the resin centrifuged through the organic phase. The aqueous supernatant was saved as the cellulose counter-selected pool. Each counter selected pool was then added to tag-xPSM agarose or cellulose resin, respectively, and incubated for one hour at 37° C., while rotating (see FIG. 2). The Tag-xPSM agarose was pelleted, washed, and saved for phage isolation. […]

T2 sequence (Q04609 44-750 limits assumed): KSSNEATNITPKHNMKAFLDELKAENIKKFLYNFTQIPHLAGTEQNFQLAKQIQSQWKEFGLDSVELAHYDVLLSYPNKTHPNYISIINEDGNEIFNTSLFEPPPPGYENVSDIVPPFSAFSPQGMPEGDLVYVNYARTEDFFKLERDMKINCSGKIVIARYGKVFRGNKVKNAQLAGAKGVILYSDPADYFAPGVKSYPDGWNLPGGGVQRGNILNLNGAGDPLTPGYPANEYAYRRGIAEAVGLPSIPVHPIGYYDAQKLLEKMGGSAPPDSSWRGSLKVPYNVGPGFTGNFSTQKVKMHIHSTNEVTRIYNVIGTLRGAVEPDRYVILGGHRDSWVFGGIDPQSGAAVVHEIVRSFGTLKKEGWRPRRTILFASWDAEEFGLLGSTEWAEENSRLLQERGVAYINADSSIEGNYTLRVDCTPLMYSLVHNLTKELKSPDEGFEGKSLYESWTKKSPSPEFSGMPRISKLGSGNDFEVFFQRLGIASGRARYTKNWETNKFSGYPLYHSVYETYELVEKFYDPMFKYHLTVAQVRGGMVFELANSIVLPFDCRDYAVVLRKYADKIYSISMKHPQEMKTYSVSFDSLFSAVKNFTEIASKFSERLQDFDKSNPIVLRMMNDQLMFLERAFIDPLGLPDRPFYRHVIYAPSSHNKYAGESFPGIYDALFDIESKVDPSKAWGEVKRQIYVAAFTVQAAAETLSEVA
T1 sequence (Q04609 44-750 limits assumed): as above

For the compound `N[C@@H](Cn1oc(=O)[nH]c1=O)C(=O)O` [quisqualic acid, reference compound], at xPSM [1], the “Effect on PSMA enzymatic activity” value is given as “inhibited”.

Turning to CERNTYRFC [SEQ ID NO:33], the “Number of times sequence was found, Round 1 xPSM” value (“Number … Round 1 xPSM” below) with xPSM [2] is 0.

For the compound CGSAARNWC [SEQ ID NO:32], the “Number … Round 1 xPSM” value with xPSM [2] amounted to 0.

Consider CKSGEVNYC [SEQ ID NO:34], for which the “Number … Round 1 xPSM” value in the assay with xPSM [2] is 0.

Turning to CLAAPTGKC [SEQ ID NO:30], in the assay with xPSM [2], the “Number … Round 1 xPSM” value was determined as 12.

For CLNTAPLAC [SEQ ID NO:60], the “Share of the round 4 acid elution pool” value in the assay with Tag-xPSM [3] stood at 83%.

In the case of CNKAALGTC [SEQ ID NO:31], in the assay with xPSM [2], the “Number … Round 1 xPSM” value is reported as 1.

Consider CPQPASRQC [SEQ ID NO:36], for which the “Number … Round 1 xPSM” value with xPSM [2] is 1.

Regarding CQKHHNYLC [SEQ ID NO:1], the “Number of times sequence was found, Round 3” value (shortened to “Number … Round 3”) with Tag-xPSM [4] (Agarose) and with Tag-xPSM [4] (Cellulose) was 0/0 throughout. The “Number of times sequence was found, Round 4” value (“Number … Round 4” below) with Tag-xPSM [4] (Agarose) and in the assay with Tag-xPSM [4] (Cellulose) was 0/0 each time. Moreover, the “Number of times sequence was found, Round 5” value (from here on “Number … Round 5”) was determined as 0 with Tag-xPSM [4] (Agarose) and 12 in the assay with Tag-xPSM [4] (asterisk: cross-selected, agarose pool selected on cellulose (final resin)). In addition, the “Effect on PSMA enzymatic activity” value with xPSM [1] is on record as “enhanced”.

Take CSSHSTVHC [SEQ ID NO:7]: in the assay with Tag-xPSM [4] (Agarose), the “Number … Round 3” value is recorded as 0/0; the “Number … Round 4” value was 0/0; the “Number … Round 5” value is listed as 0. For the same compound, in the assay with Tag-xPSM [4] (Cellulose), the “Number … Round 3” value is listed as 0/0; the “Number … Round 4” value is recorded as 0/0; the “Number … Round 5” value was 1.

With CSTRAPHLC [SEQ ID NO:5], in the assay with Tag-xPSM [4] (Agarose), the “Number … Round 3” value is 0/0; the “Number … Round 4” value is recorded as 0/0; the “Number … Round 5” value is recorded as 0. In addition, in the assay with Tag-xPSM [4] (Cellulose), the “Number … Round 3” value is given as 0/0; the “Number … Round 4” value was 0/0; the “Number … Round 5” value amounted to 1.

Regarding CTITSKRTC [SEQ ID NO:2], in the assay with Tag-xPSM [4] (Agarose), the “Number … Round 3” value is recorded as 0; the “Number … Round 4” value is 3/3; the “Number … Round 5” value is given as 0. Moreover, in the assay with Tag-xPSM [4] (Cellulose), the “Number … Round 3” value stood at 1; the “Number … Round 4” value is recorded as 3/3; the “Number … Round 5” value was determined as 3.

Turning to CTLVPHTRC [SEQ ID NO:3], in the assay with Tag-xPSM [4] (Agarose), the “Number … Round 3” value is on record as 0/0; the “Number … Round 4” value was 13/13; the “Number … Round 5” value is 0. Further, in the assay with Tag-xPSM [4] (Cellulose), the “Number … Round 3” value is listed as 0/0; the “Number … Round 4” value is on record as 13/13; the “Number … Round 5” value was determined as 2. Moreover, the “Effect on PSMA enzymatic activity” value with xPSM [1] is given as “enhanced”.

Regarding CTNPNMHHC [SEQ ID NO:35], the “Number … Round 1 xPSM” value with xPSM [2] is recorded as 0.

In the case of CTNSNMHHC [SEQ ID NO:22], in the assay with Tag-xPSM [4] (Agarose), the “Number … Round 3” value was found to be 1; the “Number … Round 4” value is on record as 0/0; the “Number … Round 5” value is 0/0. For the same compound, in the assay with Tag-xPSM [4] (Cellulose), the “Number … Round 3” value was found to be 0; the “Number … Round 4” value is 0/0; the “Number … Round 5” value is 0/0.

On to CTPLSPRYC [SEQ ID NO:12], for which, in the assay with Tag-xPSM [4] (Agarose), the “Number … Round 3” value is 0/0; the “Number … Round 4” value is 0; the “Number … Round 5” value was 0/0. Besides, in the assay with Tag-xPSM [4] (Cellulose), the “Number … Round 3” value is on record as 0/0; the “Number … Round 4” value came to 1; the “Number … Round 5” value is recorded as 0/0.

Consider CTSNNSAIC [SEQ ID NO:27], for which, in the assay with Tag-xPSM [4] (Agarose), the “Number … Round 3” value amounted to 0; the “Number … Round 4” value is recorded as 0/0; the “Number … Round 5” value is on record as 0/0. In the assay with Tag-xPSM [4] (Cellulose), the “Number … Round 3” value was 1; the “Number … Round 4” value is on record as 0/0; the “Number … Round 5” value was 0/0.

On to CTYNPSRWC [SEQ ID NO:29], for which, in the assay with xPSM [2], the “Number … Round 1 xPSM” value is 7.

Source of the values: patent US7749968B2, “Peptides for targeting the prostate specific membrane antigen” (The Johns Hopkins University, priority 2002, dated 2010).
